The values that follow come from patent US20210101954A1 (EUREKA THERAPEUTICS, published 2021).

The target of this test is T1, CD19 (human, UniProt P15391 20-556).
T1 construct: whole, on cells; also called CD19 on NALM6, Raji, K562-CD19 and K562-CD19/CD22 cells
T1 sequence (looked up): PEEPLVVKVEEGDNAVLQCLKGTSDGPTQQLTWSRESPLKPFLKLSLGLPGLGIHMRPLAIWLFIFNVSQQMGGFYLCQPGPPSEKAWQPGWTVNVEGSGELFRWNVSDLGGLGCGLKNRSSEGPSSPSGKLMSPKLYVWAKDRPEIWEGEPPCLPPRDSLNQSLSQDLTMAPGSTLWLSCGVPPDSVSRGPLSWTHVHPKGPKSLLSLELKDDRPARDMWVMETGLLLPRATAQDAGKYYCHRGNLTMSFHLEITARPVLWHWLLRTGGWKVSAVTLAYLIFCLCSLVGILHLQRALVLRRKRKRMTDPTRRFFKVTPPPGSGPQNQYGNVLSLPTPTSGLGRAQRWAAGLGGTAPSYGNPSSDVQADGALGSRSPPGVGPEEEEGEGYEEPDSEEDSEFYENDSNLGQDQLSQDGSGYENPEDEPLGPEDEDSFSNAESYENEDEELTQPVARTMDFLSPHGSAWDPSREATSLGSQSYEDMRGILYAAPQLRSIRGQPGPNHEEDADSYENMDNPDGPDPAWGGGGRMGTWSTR
In words: told from antigen-specific IFN-γ release of transduced T cells on CD19+ and/or CD22+ cell lines. The source says: Primary T cells were mock-transduced or transduced with a lentiviral vector encoding the anti-CD19 anti-CD22 caTCR-7-2a construct. The transduced T cells were mixed with K562 (CD19 CD22 double negative), K562-CD22 (K562 transduced with CD22), K562-CD19 (K562 transduced with CD19), Raji (which expresses both CD19 and CD22), or Raji CD19 K/O (Raji with CD19 knocked out) cells at an effector-to-target ratio of 2.5:1. T-cells secrete IFN-γ when activated by TCR engagement with target ligand. The cytokine release levels of IFN-γ were measured and used as an indicator of the receptor's signaling potential (the higher levels, the higher the receptor's signaling potential and cytotoxic T cell activity). Cytokine concentrations were measured after 16 hours of co-culture using the Magpix multiplex system (Luminex) with the Bio-plex Pro Human Cytokine 8-plex Assay (BioRad).
T cells expressing the anti-CD19 anti-CD22 caTCR-7-2a construct specifically activated IFN-γ secretion when incubated with K562 expressing either CD19 or CD22 antigens. […] In vitro killing

B1: anti-CD19 anti-CD22 caTCR-7-2a (other)
chain 1: DIQLTQSPSSLSTSVGDRVTITCQASHDIRNYLNWYQQKPGKAPNLLIYAASNLQTGVPSRFSGRGSGTDFTLTISSLQPEDIATYYCQQYDGLPLTFGQGTRLEIKRGGGGSEVQLVQSGAEVKKPGESLKISCKGSGYSFTSYWIGWVRQMPGKGLEWMGIIYPGDSDTRYSPSFQGQVTISADKSISTAYLQWSSLKASDTAMYYCARQVWGWQGGMYPRSNWWYNLDSWGQGTLVTVSSASTKGPSVFPLAPSSKSTSGGTAALGCLVKDYFPEPVTVSWNSGALTSGVHTFPAVLQSSGLYSLSSVVTVPSSSLGTQTYICNVNHKPSNTKVDKRVEPKSCEVKTDSTDHVKPKETENTKQPSKSCHKPKAIVHTEKVNMMSLTVLGLRMLFAKTVAVNFLLTAKLFFL
chain 2: QVQLVESGGGLVQPGGSLRLSCAASGFTFSNYAMSWVRQAPGKGLEWVSSISGSGGSTYYADSVKGRFTISRDTSKNTLYLQMNSLRAEDTAVYYCARYGSAAWMDSWGQGTLVTVSSGGGGSLPVLTQPPSVSVAPGKTARITCGGNNIGSKSVHWYQQKPGQAPVLVVYDDSDRPSGIPERFSGSNSGNTATLTISRVEAGDEADYYCQVWDSSSDYVVFGGGTKLTVLGQPKANPTVTLFPPSSEELQANKATLVCLISDFYPGAVTVAWKADGSPVKAGVETTKPSKQSNNKYAASSYLSLTPEQWKSHRSYSCQVTHEGSTVEKTVAPTECSPIKTDVITMDPKDNCSKDANDTLLLQLTNTSAYYMYLLLLLKSVVYFAIITCCLLRRTAFCCNGEKS
notes: Bispecific chimeric antibody-TCR construct expressed on transduced primary T cells
In the case of B1, the binding result was “binds”.
